Measured values taken from patent USRE43568.

What was measured:
[1] = biological target: Fcγ receptors on granulocytes (FcγRII and RIII) (human); experiment: FACS on human granulocytes, antibody 10 µg/ml
[2] = biological target: Fcγ receptors on monocytes (FcγRI and RII) (human); experiment: FACS on human monocytes, antibody 10 µg/ml
[3] = biological target: human complement C3 (from human pooled serum) (human) (UniProt P01024); experiment: C3 ELISA, antibody coated, human pooled serum added

| % granulocytes binding antibody [1] | % monocytes binding antibody [2] | Bmax (OD405 at 10 µg/ml) [3] | Substance |
| --- | --- | --- | --- |
| 1.6% | 14.5% | 0.104 OD405 | HuMab 002 Fc variant IgG4v1 (S228P; L235E) (antibody) |
|  |  | 0.133 OD405 | HuMab 002 Fc variant IgG1v2 (L234A; L235A) (antibody) |
|  | 9.4% |  | human IgG4 (CLB, the Netherlands), negative control (antibody) |
